{"source": "patent US20090112150A1", "about": "“CAVITATION ENHANCED TREATMENT THROUGH LOCAL DELIVERY” (IMARX THERAPEUTICS, INC., priority 2004, published 2009)", "experiment": "Loading of thrombolytic drugs into microbubbles, particle sizing/counting on Accusizer 770", "type": "physicochemical", "conditions": "MX115 microbubbles", "protocol": "MX115 was activated in the vial. Different concentrations of thrombolytic drugs, Streptokinase (Sigma, Milwaukee, Wis.) and t-PA (Genentech, South San Francisco, Calif.), were added to the vial and incubated with the microbubbles for 5 minutes before analyzing the mixtures using a Model 770 Accusizer (Particle Sizing Systems, Santa Barbara, Calif.). […] As much as 5 mg of the drug could be loaded into the MRX 115 microbubbles.", "key": {"[1]": {"conditions": "protein loading in microbubbles 0.010 mg, 5 minutes incubation"}, "[2]": {"conditions": "protein loading in microbubbles 0.1 mg, 5 minutes incubation"}, "[3]": {"conditions": "protein loading in microbubbles 1 mg, 5 minutes incubation"}, "[4]": {"conditions": "protein loading in microbubbles 5 mg, 5 minutes incubation"}}}
{"substance": "Tissue Plasminogen Activator [tPA]", "values": [{"measurement": "Number of particles/mL", "setting": "After 24 hrs", "value": "1.3 × 10^9 particles/mL"}, {"measurement": "Number wt mean", "setting": "After 24 hrs", "value": 2.20, "unit": "μ"}, {"measurement": "Volume wt mean", "setting": "After 24 hrs", "value": 24.4, "unit": "μ"}, {"measurement": "Number of particles/mL", "setting": "[1]", "value": "1.1 × 10^9 particles/mL"}, {"measurement": "Number wt mean", "setting": "[1]", "value": 2.27, "unit": "μ"}, {"measurement": "Volume wt mean", "setting": "[1]", "value": 23.5, "unit": "μ"}]}
{"substance": "Streptokinase", "values": [{"measurement": "Number of particles/mL", "setting": "[2]", "value": "1.1 × 10^9 particles/mL"}, {"measurement": "Number wt mean", "setting": "[2]", "value": 1.79, "unit": "μ"}, {"measurement": "Volume wt mean", "setting": "[2]", "value": 13.6, "unit": "μ"}, {"measurement": "Number of particles/mL", "setting": "[3]", "value": "1.1 × 10^9 particles/mL"}, {"measurement": "Number wt mean", "setting": "[3]", "value": 1.87, "unit": "μ"}, {"measurement": "Volume wt mean", "setting": "[3]", "value": 17.1, "unit": "μ"}, {"measurement": "Number of particles/mL", "setting": "[4]", "value": "0.5 × 10^9 particles/mL"}, {"measurement": "Number wt mean", "setting": "[4]", "value": 2.44, "unit": "μ"}, {"measurement": "Volume wt mean", "setting": "[4]", "value": 52.9, "unit": "μ"}]}
